This note sets out measurements from patent publication US20150266963A1 (ARGEN X B V, published 2015).

Assay [1] addresses T1, human CD70 expressed on the surface of cells (human, UniProt P32970 1-193).
T1 sequence (looked up): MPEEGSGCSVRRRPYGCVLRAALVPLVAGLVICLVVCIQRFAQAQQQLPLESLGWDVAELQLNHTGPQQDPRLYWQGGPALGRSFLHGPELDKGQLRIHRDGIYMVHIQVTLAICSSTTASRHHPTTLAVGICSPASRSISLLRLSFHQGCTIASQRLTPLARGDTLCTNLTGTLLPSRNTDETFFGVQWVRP
Description: cell-based or functional assay.

Assay [2] concerns the target T1, human CD70 expressed on the surface of …. Description: cell-based or functional assay. This is another data set of the same source.
Assay [3] addresses T2, rhesus recombinant CD70 (FLAG-TNC-rhesus CD70) (rhesus).
T2 construct: also called rhesus Flag-TNC-CD70
Description: inhibition ELISA; FLAG-TNC-rhesus CD70; competitor CD27-Fc. From the text: In this assay, Flag-TNC-CD70 is captured by an anti-Flag mAb and binding of CD27-Fc is detected via a biotinylated anti-CD27 mAb and strep-HRP in the absence or presence of CD70 Fabs (FIGS. 2 and 3) or CD70 mAbs (FIG. 4). In FIG. 2B it can be seen that 27B3, which has an identical VH as 9D1, but contains a somewhat different light chain, seems to block binding of CD27 to CD70 more efficiently, which was in line with the better off rate of this Fab as measured on Biacore (data not shown). Table 3 indicates the blocking potency (expressed as IC50) for the various llama-human chimeric mAbs tested in the CD70 inhibition ELISA. […] FIG. 3 is a composite of an experiment testing llama CD70 Fabs for blocking activity (in the inhibition ELISA, see white bars) and for CD70 binding (binding ELISA, black bars). For the binding ELISA, Flag-TNC-CD70 is captured by an anti-Flag mAb and binding of the Fabs is detected using an anti-myc-HRP mAb, which recognizes the MYC tag fused to the C-terminus of the Fd fragment. For comparison purposes, known monoclonal antibodies to CD70 (SGN70 described in US 2010/0129362 A1, clone 1F6; and MDX69A7 described in WO2008/074004 FIGS. 5A and 5B) were tested in parallel. […] Of interest is clone 59D10, which as Fab has no blocking activity, but when converted into a chimeric IgG was antagonistic (see Table 3). […]
(An ELISA detects its analyte on a solid surface through an enzyme-linked reagent.)

Assay [4] deals with T1, human CD70 expressed on the surface of …. Kind of assay: cell-based or functional assay. This is another data set of the same source.
The target in assay [5] is T3, recombinant human CD70 (Flag-TNC-CD70) (human, UniProt P32970 39-193).
T3 construct: extracellular domain; Captured by anti-Flag mAb in ELISA; as 'recombinant human CD70' immobilised on Biacore CM5 chips; TNC is for trimerisation; also called recombinant CD70; human recombinant CD70; not shown: Flag tag and TNC trimerisation domain
T3 sequence (looked up): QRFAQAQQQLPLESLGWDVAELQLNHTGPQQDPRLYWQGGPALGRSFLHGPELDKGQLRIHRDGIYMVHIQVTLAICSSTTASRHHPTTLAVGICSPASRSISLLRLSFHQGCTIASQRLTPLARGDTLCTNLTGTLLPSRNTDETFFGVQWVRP
Kind of assay: inhibition ELISA; Flag-TNC-CD70 captured by anti-Flag mAb; competitor CD27-Fc. In outline: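 Flag-TNC-CD70 captured by anti-Flag mAb, then incubated with CD27-Fc with or without titrated Fabs (periplasmic extracts) or chimeric mAbs. Bound CD27-Fc detected via biotinylated anti-CD27 mAb and strep-HRP, and blocking potency expressed as IC50.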

Assay [6] addresses T1, human CD70 expressed on the surface of …. Kind of assay: flow cytometry on 786-O cells; anti-human Fc-FITC. The protocol: Fluorescence of 10,000 cells/condition was measured using a flow cytometer and the median fluorescence was plotted.
On the technique in general: Flow cytometry measures light scatter and fluorescence of single cells or particles in a stream.

Assay [7] addresses T3, recombinant human CD70 (Flag-TNC-CD70). Kind of assay: inhibition ELISA; Flag-TNC-CD70 captured by anti-Flag mAb; competitor CD27-Fc. On the procedure: From selected phage transfected into TG1, individual colonies were picked randomly for growth in 96 well plates. After IPTG induction according to standard protocols periplasmic fractions (penis) containing Fabs were prepared. […] In this assay, Flag-TNC-CD70 is captured by an anti-Flag mAb and binding of CD27-Fc is detected via a biotinylated anti-CD27 mAb and strep-HRP in the absence or presence of CD70 Fabs (FIGS. 2 and 3) or CD70 mAbs (FIG. 4). In FIG. 2B it can be seen that 27B3, which has an identical VH as 9D1, but contains a somewhat different light chain, seems to block binding of CD27 to CD70 more efficiently, which was in line with the better off rate of this Fab as measured on Biacore (data not shown). Table 3 indicates the blocking potency (expressed as IC50) for the various llama-human chimeric mAbs tested in the CD70 inhibition ELISA. […] FIG. 3 is a composite of an experiment testing llama CD70 Fabs for blocking activity (in the inhibition ELISA, see white bars) and for CD70 binding (binding ELISA, black bars). For the binding ELISA, Flag-TNC-CD70 is captured by an anti-Flag mAb and binding of the Fabs is detected using an anti-myc-HRP mAb, which recognizes the MYC tag fused to the C-terminus of the Fd fragment. For comparison purposes, known monoclonal antibodies to CD70 (SGN70 described in US 2010/0129362 A1, clone 1F6; and MDX69A7 described in WO2008/074004 FIGS. 5A and 5B) were tested in parallel. […] Of interest is clone 59D10, which as Fab has no blocking activity, but when converted into a chimeric IgG was antagonistic (see Table 3). Amino acid sequences of the VH and VL domains of binding and blocking llama-derived Fab clones are shown elsewhere herein (Tables 6-9).
This is another data set of the same source.

Where two headings read alike, the source gives them in different places.

B1: 27B3 chimeric llama-human mAb (antibody, human IgG1, V domains shown)
VH: EVQLVESGGGLVQPGGSLRLSCAASGFTFSVYYMNWVRQAPGKGLEWVSDINNEGGTTYYADSVKGRFTISRDNAKNTLTLQMNSLKPEDTALYYCVRDAGYSNHVPIFDSWGQGTQVIVAS
VL: QAVVTQEPSLTVSPGGTVTLTCGLKSGSVTSTNFPTWYQQTPGQAPRLLIYNTNTRHSGVPSRFSGSISENKAALTITGAQPEDEAEYFCALFISNPSVEFGGGTQLTVLS
notes: also called SIMPLE antibody 27B3; mAb 27B3
For B1, the “IC50 (ng/ml), IL-8 secretion in Raji / HT1080-CD27 co-culture assay” value in assay [1] turned out to be 5 ng/mL. The “Raji co-culture assay IC50 relative to 27B3” value in assay [2] was 1 fold of 27B3. The results for the IC50 in assay [3], in assay [5] and in assay [7] were 0.15 µg/mL, 0.038 µg/mL and 250 pM, respectively. Further, the “IC50, IL-8 secretion in Raji / HT1080-CD27 co-culture assay” value in assay [4] was determined as 33 pM. Further, the midpoint of the response in assay [6], the EC50, lay at 240 pM.
